{"source": "the supplement of paper PMC12042874", "note": "± gives the uncertainty stated by the source.", "data": [{"assay": "amyloid nucleation score (Sup35N fusion, yeast selection) (log enrichment); library NNK2; higher = more nucleation; inactive = no reads after selection", "in_short": "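Peptides of 20 random codons fused to Sup35N were expressed in psi-negative yeast, induced 24 hours with 100 μM copper sulfate, then grown 7 days at 30°C on medium lacking adenine and uracil. Input and output plasmid inserts were Illumina-sequenced. Nucleation score is the DiMSum log enrichment of output over input reads, centred on the mode score of non-aggregating sequences, excluding sequences with under 100 input reads. Random libraries had three technical output replicates.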", "values": [{"substance": "VWVKRVDASSCAVS", "amyloid nucleation score": "1.26 ± 0.38"}, {"substance": "LYLTYKVVHTSTPPVASYCE", "amyloid nucleation score": "5.855 ± 0.033"}, {"substance": "MIVLIQKGLWGFDLQAVFVP", "amyloid nucleation score": "-0.653 ± 1.1"}, {"substance": "SGLRYFMFIISNSI", "amyloid nucleation score": "0.58 ± 0.22"}, {"substance": "NRLLSVSEFAMDTRMRQEEA", "amyloid nucleation score": "1.01 ± 0.36"}, {"substance": "AFGRTTKKDVCLFGYPKQVE", "amyloid nucleation score": "-0.235 ± 0.46"}, {"substance": "GGISNVCLSYVRFQEFVFNV", "amyloid nucleation score": "5.69 ± 0.093"}, {"substance": "YTVWGKY", "amyloid nucleation score": "0.288 ± 0.53"}, {"substance": "YCYLMMEAWHMEANWYHCFV", "amyloid nucleation score": "-0.209 ± 0.2"}, {"substance": "SRRVFVKWGNWSCFVVVEDN", "amyloid nucleation score": "0.072 ± 0.16"}, {"substance": "MCSMCIVLPPVCVLKAKVYT", "amyloid nucleation score": "3.69 ± 0.081"}, {"substance": "LCILTRTYSAQA", "amyloid nucleation score": "-0.238 ± 0.49"}, {"substance": "MLDLIRLNDVICSQKFH", "amyloid nucleation score": "0.48 ± 0.64"}, {"substance": "EIMCLHKNALCFQCSTSGCA", "amyloid nucleation score": "7.52 ± 0.046"}, {"substance": "YFHVVFL", "amyloid nucleation score": "2.75 ± 0.094"}, {"substance": "CQGHQWSYRPVP", "amyloid nucleation score": "0.684 ± 0.35"}, {"substance": "FNIVQHVASCGWLTYTWSAA", "amyloid nucleation score": "-0.018 ± 1.1"}, {"substance": "LIYRCN", "amyloid nucleation score": "-0.673 ± 1"}, {"substance": "HIVEDLRVSAFTFSIKFISE", "amyloid nucleation score": "3.33 ± 0.099"}, {"substance": "QRRQVDSVM", "amyloid nucleation score": "1.27 ± 0.27"}, {"substance": "FSSLIKTICLMTAMAEGMSP", "amyloid nucleation score": "-0.258 ± 0.76"}, {"substance": "RNLCGFGCVTFRSVLL", "amyloid nucleation score": "0.279 ± 0.65"}, {"substance": "RYRWDLSPRNTTTN", "amyloid nucleation score": "3.22 ± 0.072"}, {"substance": "LNCTYN", "amyloid nucleation score": "-0.311 ± 0.79"}, {"substance": "DNVMLYKRKKQRPIMVPWSA", "amyloid nucleation score": "-0.488 ± 0.35"}, {"substance": "RRVVWSWNCLLSDMPRSHVL", "amyloid nucleation score": "1.51 ± 0.13"}, {"substance": "VTALDMFVLSWGCGWGMN", "amyloid nucleation score": "3.06 ± 0.17"}, {"substance": "VSISCSVWIMGRVYLIRYSG", "amyloid nucleation score": "-1.36 ± 0.78"}, {"substance": "LRGSFNLVSYFTQLRSCDYF", "amyloid nucleation score": "-1.27 ± 0.78"}, {"substance": "RSTERCNYTCVNWVVL", "amyloid nucleation score": "7.748 ± 0.048"}, {"substance": "EKFYLDLG", "amyloid nucleation score": "-0.006 ± 0.54"}, {"substance": "LVQCLLYSLWCQALSQPMYV", "amyloid nucleation score": "-0.753 ± 1"}, {"substance": "SNYGCDQWWNITWFE", "amyloid nucleation score": "-0.791 ± 0.61"}, {"substance": "MWNQDLSFFCITRDIKVCTF", "amyloid nucleation score": "4.87 ± 0.06"}, {"substance": "SSRWQFYGHF", "amyloid nucleation score": "0.518 ± 0.26"}, {"substance": "MQLCYKYRTVVTSSLDPEYM", "amyloid nucleation score": "-0.066 ± 0.74"}, {"substance": "YAGFVFFRTL", "amyloid nucleation score": "inactive"}, {"substance": "TYVMPSVVIKNCH", "amyloid nucleation score": "-0.267 ± 0.79"}, {"substance": "CPLFYMSMISGFEGIFSLHK", "amyloid nucleation score": "inactive"}, {"substance": "DCLRCNHYTVCNMYDRFFLL", "amyloid nucleation score": "inactive"}, {"substance": "ETVDSESFSGCGIVFLRGSN", "amyloid nucleation score": "-0.908 ± 0.78"}, {"substance": "VVPIGETR", "amyloid nucleation score": "1.49 ± 0.47"}, {"substance": "QKHPGFKYHQNLRLVSLSKR", "amyloid nucleation score": "-0.837 ± 0.45"}, {"substance": "RGTMVWTDCFMCLGLYKKVY", "amyloid nucleation score": "-0.896 ± 0.56"}, {"substance": "ASYLLKVVVYIHLSGSHGVD", "amyloid nucleation score": "4.55 ± 0.068"}, {"substance": "CKALCIKIWVERVTC", "amyloid nucleation score": "2.31 ± 0.16"}, {"substance": "RMPVLSCDCRFFYVLSRVNE", "amyloid nucleation score": "-0.566 ± 1"}, {"substance": "DREFLGDCWVLAELSKTRLI", "amyloid nucleation score": "3.24 ± 0.093"}, {"substance": "VVIQPGTYFYLCNIFA", "amyloid nucleation score": "-1.58 ± 0.78"}, {"substance": "MIGNQNQGVCW", "amyloid nucleation score": "0.141 ± 0.29"}, {"substance": "LWAYPLSMLWGKLFMDGMLL", "amyloid nucleation score": "-0.486 ± 0.27"}, {"substance": "KLAYCYSSYSHHD", "amyloid nucleation score": "0.316 ± 0.65"}, {"substance": "REVLWCLPDQGELPGGVTFG", "amyloid nucleation score": "2.44 ± 0.08"}, {"substance": "LTYYLSYCHYRRTYLAGLLQ", "amyloid nucleation score": "-0.249 ± 0.2"}, {"substance": "CGSQKWVQYKIMKWYK", "amyloid nucleation score": "0.627 ± 0.57"}, {"substance": "HIWRHDRVLLGSSNTKYMCG", "amyloid nucleation score": "0.759 ± 0.8"}, {"substance": "CVTQSR", "amyloid nucleation score": "-0.086 ± 0.26"}, {"substance": "IISSGSIDCVYWTWFLRY", "amyloid nucleation score": "-0.396 ± 0.55"}, {"substance": "GKTYVGYFLFNLTGTVYFKR", "amyloid nucleation score": "0.004 ± 1.1"}, {"substance": "SVPDFDRWAFTGRVQTYADC", "amyloid nucleation score": "-0.614 ± 0.79"}, {"substance": "TLFSLREGLFNGIWTVSLSW", "amyloid nucleation score": "-1.09 ± 1.1"}, {"substance": "AINLSDKAARVPLFK", "amyloid nucleation score": "-0.093 ± 0.34"}, {"substance": "MCCGISMVFGDCSQVSVLIR", "amyloid nucleation score": "8.847 ± 0.047"}, {"substance": "QGSNRACGLSEDCLFTV", "amyloid nucleation score": "0.282 ± 0.22"}, {"substance": "SFFNSWTHFGNCWFL", "amyloid nucleation score": "3.85 ± 0.065"}, {"substance": "DSVSTVVFII", "amyloid nucleation score": "4.47 ± 0.045"}, {"substance": "AVRELVYDLLASKNFWTSNA", "amyloid nucleation score": "0.932 ± 0.2"}, {"substance": "GDYYFV", "amyloid nucleation score": "-1.19 ± 1"}, {"substance": "MQFLFK", "amyloid nucleation score": "-1.33 ± 1.1"}, {"substance": "NYCRVDLHSYKCYVVCSMFM", "amyloid nucleation score": "4.76 ± 0.11"}, {"substance": "FASLFPKAPERTEVSEPYRR", "amyloid nucleation score": "-0.76 ± 0.5"}]}]}
